Blank lines part the entries; values can stand above or below the binder they belong to.
How the values were obtained:
[1] = target: T1, human galectin-10 as coated in ELISA (soluble galectin-10; tag not given) (human, UniProt Q05315 1-142, limits assumed); assay: ELISA, scFv periplasmic extract on coated soluble galectin-10, anti-Myc-HRP
T1 construct: also called coated galectin-10; Gal10
T1 sequence: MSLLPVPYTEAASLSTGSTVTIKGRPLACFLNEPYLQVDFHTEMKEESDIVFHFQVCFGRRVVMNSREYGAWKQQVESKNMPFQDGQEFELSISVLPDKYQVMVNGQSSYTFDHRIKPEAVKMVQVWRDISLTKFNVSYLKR

[2] = target: T2, human galectin-10-His (recombinant human galectin-10 with TEV-cleavable N-terminal His-tag) (human); assay: BLI Octet RED96, galectin-10-His on anti-Penta-His tips, scFv periplasmic extract 1/10
T2 construct: SEC-MALLS: dimer in solution; also called Gal10-His; humanGal10-His
T2 chain: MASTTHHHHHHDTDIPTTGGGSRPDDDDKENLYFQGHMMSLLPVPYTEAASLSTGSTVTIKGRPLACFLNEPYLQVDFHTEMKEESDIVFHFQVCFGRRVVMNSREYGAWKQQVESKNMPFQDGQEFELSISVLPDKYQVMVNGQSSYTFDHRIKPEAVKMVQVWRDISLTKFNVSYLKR
Experimental: Briefly, galectin-10-His tagged diluted in Kinetic Buffer was captured on Anti-Penta His 1K sensor tips until an immobilization level of 1 nm was reached. Then, diluted periplasmic extracts (1/10) were applied and association/dissociation to immobilized galectin-10-His was measured using the ForteBio Data analysis 9.0 software (subtraction of the reference Tips, 1.1 binding model). During the screening, only the dissociation (off-rate) of the scFv can be determined since the effective concentration of the scFv is unknown and can vary a lot from clone to clone. […] Therefore, taking into consideration the ELISA and BLI data, a new panel of lead scFvs was selected.

[3] = target: T2, human galectin-10-His (recombinant …); assay: ELISA, Fab on coated galectin-10-His
[4] = target: T2, human galectin-10-His (recombinant …); assay: BLI OctetRed96, Fab on galectin-10-His

B1: scFv 6B06 (periplasmic extract, Myc-tagged) (scFv, not shown: small tags and cut ends)
scFv: QVQRQESGPGLVKPSQTLSLTCTVSGGSITTNYYSWSWIRQPPGKGLEWIGYIAYSGSTSYSPSLKSRTSISRDTSNNQFSLQLSSVTPEDTAVYYCARSRSSPTTFGMDYWGKGTLVTVSSGGGGSGGGGSGGGGSSSALTQPSAVSVSLGQTARITCQGGNFGRYYVSWYTQKPGQAPVLVIYQDSERPTGIPERFSGSSSGDTATLTISGAQAEDEADYYCQSGTSSDNIVFGGGTHLTVL
ELISA binding (OD values) [1]: 3.7 OD
koff [2]: 0.0058 s⁻¹

B5: 1D11 Fab (Fab, V domains shown)
VH: QVQLVESGGGLVQPGGSLRLSCAASGFTFDDYAMSWVRQAPGKGLEWVSGISWNGGSTYYAESMKGRFTISRDNAKNTLYLQMNSLKSEDTAVYYCAKDRNLGYRLGYPYDYWGQGTQVTVSS
VL: QSVLTQPPSVSGSPGETVTISCAGTSSDVGYGNYVSWYQQLPGMAPRLLIYEVNKRASGITDRFSGSKSGNTASLTISGLQSEDEGDYYCASYRSSNNAVFGGGTHLTVL
notes: VH on human CH1 constant domain (with part of the hinge region), VL on human lambda constant domain; also called Fab 1D11; Fab-1D11
Bmax [3]: 0.9 OD
EC50 [3]: 1.6 nM
Kd [4]: 10.7 nM
koff [4]: 0.000299 s⁻¹

B7: 6F05 Fab (Fab, V domains shown)
VH: QLQLVESGGGLVQPGGSLRLSCAASGFTFSSYAMSWVRQAPGKGLEWVSAINSGGGSTSYADSVKGRFTISRDNAKNTLYLQMNSLKPEDTAVYYCATPGDRLWYYRYDYWGQGTQVTVSS
VL: QAGLTQPPSVSGTLGKAVTISCAGTSSDIGYGNYVSWYQQLPGTAPKLLIYKVSRRASGVPDRFSGSKSGNTASLSISGLQSEDEADYYCASYRYRNNVVFGGGTHLTVL
notes: VH on human CH1 constant domain (with part of the hinge region), VL on human lambda constant domain; also called 6F5; Fab 6F5
Bmax [3]: 0.8 OD
EC50 [3]: 26.7 nM
Kd [4]: 188 nM
koff [4]: 0.00356 s⁻¹

Next, values leading:

ELISA binding (OD values) [1]: 3.7 OD
koff [2]: 0.016 s⁻¹
B2: scFv 6E10 (periplasmic extract, Myc-tagged) (scFv, not shown: small tags and cut ends)
scFv: QLQLVESGGGLVQPGGSLRLSCAASGFTFSSYWMYWVRQAPGKGLEWVSAINTGGGSTYYADSVKGRFTISRDNAKNTLYLQMNSLKPEDTALYYCARAGSGVAGTGYDYWGQGTQVTVSSGGGGSGGGGSGGGGSQPVLNQPSAVSVSLGQTARITCQGGNFGYYYVSWYQQKPGQAPVLVIYRDSGRPSGIPERFSGSSSGDTATLTISGAQAEDEADYYCQSGSSSDNAVFGGGTHLTVL
notes: also called 6E010

ELISA binding (OD values) [1]: 3.8 OD
koff [2]: 0.0057 s⁻¹
B3: scFv 6F06 (periplasmic extract, Myc-tagged) (scFv, not shown: small tags and cut ends)
scFv: QVQLVESGGGLVQPGGSLRLSCAASEFTFSRYSMSWVRQAPGKGLEWVSTINSGGGSTSYVDSVKGRFTISRDNAKNTLYLQMNSLKPEDTAVYYCTKSQGGISFSTQYGMDYWGKGTLVTVSSGGGGSGGGGSGGGGSNFMLTQPSAVSVSLGQTARITCQGGNFGRYYANWYQQKPGQAPVLVIYKDSERPSGIPERFSGSSSGDTATLTISGAQAEDESDYYCQSGSVSDNAVFGGGTHLAVL

Bmax [3]: 1 OD
EC50 [3]: 1.9 nM
Kd [4]: 13.4 nM
koff [4]: 0.000383 s⁻¹
B4: 1C09 Fab (Fab, V domains shown)
VH: QVQLVESGPGLVKPSQTLSLTCTVSGGSITTNSYYWSWIRQPPGKGLEWMGAIAYSGSTYYSPSLKSRTSISRDTSKNQFTLHLSSVTPEDTAVYYCARRPNWYRALDAWGQGTLVTVSS
VL: NFMLTQPSAVSVSLGQTARITCQGANLGRYYGIWYQQKPGQAPVQVIYGDSNRPSGIPERFSGSSSGGTATLTISGAQAEDEADYYCQSYESSTSPVFGGGTHLTVL
notes: VH on human CH1 constant domain (with part of the hinge region), VL on human lambda constant domain; also called 1C9; Fab 1C09

Bmax [3]: 0.7 OD
EC50 [3]: 25.6 nM
Kd [4]: 147 nM
koff [4]: 0.00248 s⁻¹
B6: 4E08 Fab (Fab, V domains shown)
VH: QVQRQESGPGLVKPSQTLSLTCTVSGGSITTSYYAWSWIRQPPGKGLEWMGVIASDGSTYYSPSLKSRTSISRDTSKNQFSLQLSSVTPEDTAVYYCALYIRGSSWSGWSAYDYWGQGTQVTVSS
VL: QPVLNQPSAVSVSLGQTARITCQGGNFGYYYGSWYQQKPGQAPVLVIYKDSERPSGIPERFSGSSSGGTATLTISRAQAEDEADYYCQSADSSDNPVFGGGTHLTVL
notes: VH on human CH1 constant domain (with part of the hinge region), VL on human lambda constant domain; also called 4E8; Fab 4E8

From patent US20190367619A1 (ARGENX, published 2019)
